Reference: IntAct's records for PubMed 19864458

B1: EH domain-containing protein 1 (Homo sapiens), Q9H4M9 (parent)
chain: MFSWVSKDARRKKEPELFQTVAEGLRQLYAQKLLPLEEHYRFHEFHSPALEDADFDNKPMVLLVGQYSTGKTTFIRHLIEQDFPGMRIGPEPTTDSFIAVMHGPTEGVVPGNALVVDPRRPFRKLNAFGNAFLNRFMCAQLPNPVLDSISIIDTPGILSGEKQRISRGYDFAAVLEWFAERVDRIILLFDAHKLDISDEFSEVIKALKNHEDKIRVVLNKADQIETQQLMRVYGALMWSLGKIINTPEVVRVYIGSFWSHPLLIPDNRKLFEAEEQDLFKDIQSLPRNAALRKLNDLIKRARLAKVHAYIISSLKKEMPNVFGKESKKKELVNNLGEIYQKIEREHQISPGDFPSLRKMQELLQTQDFSKFQALKPKLLDTVDDMLANDIARLMVMVRQEESLMPSQVVKGGAFDGTMNGPFGHGYGEGAGEGIDDVEWVVGKDKPTYDEIFYTLSPVNGKITGANAKKEMVKSKLPNTVLGKIWKLADVDKDGLLDDEEFALANHLIKVKLEGHELPADLPPHLVPPSKRRHE
B2: MICAL-like protein 1 (Homo sapiens), Q8N3F8 (parent)
chain: MAGPRGALLAWCRRQCEGYRGVEIRDLSSSFRDGLAFCAILHRHRPDLLDFDSLSKDNVFENNRLAFEVAEKELGIPALLDPNDMVSMSVPDCLSIMTYVSQYYNHFCSPGQAGVSPPRKGLAPCSPPSVAPTPVEPEDVAQGEELSSGSLSEQGTGQTPSSTCAACQQHVHLVQRYLADGRLYHRHCFRCRRCSSTLLPGAYENGPEEGTFVCAEHCARLGPGTRSGTRPGPFSQPKQQHQQQLAEDAKDVPGGGPSSSAPAGAEADGPKASPEARPQIPTKPRVPGKLQELASPPAGRPTPAPRKASESTTPAPPTPRPRSSLQQENLVEQAGSSSLVNGRLHELPVPKPRGTPKPSEGTPAPRKDPPWITLVQAEPKKKPAPLPPSSSPGPPSQDSRQVENGGTEEVAQPSPTASLESKPYNPFEEEEEDKEEEAPAAPSLATSPALGHPESTPKSLHPWYGITPTSSPKTKKRPAPRAPSASPLALHASRLSHSEPPSATPSPALSVESLSSESASQTAGAELLEPPAVPKSSSEPAVHAPGTPGNPVSLSTNSSLASSGELVEPRVEQMPQASPGLAPRTRGSSGPQPAKPCSGATPTPLLLVGDRSPVPSPGSSSPQLQVKSSCKENPFNRKPSPAASPATKKATKGSKPVRPPAPGHGFPLIKRKVQADQYIPEEDIHGEMDTIERRLDALEHRGVLLEEKLRGGLNEGREDDMLVDWFKLIHEKHLLVRRESELIYVFKQQNLEQRQADVEYELRCLLNKPEKDWTEEDRAREKVLMQELVTLIEQRNAIINCLDEDRQREEEEDKMLEAMIKKKEFQREAEPEGKKKGKFKTMKMLKLLGNKRDAKSKSPRDKS
partner: B1 chain

Variants of: B1
Settings: with milk1_human MICALL1, Q8N3F8

Row | Variant | effect of a mutation on the interaction
1 | K483E | with no effect

Variants of: B2
Settings: with ehd1_human EHD1, Q9H4M9

Row | Variant | effect of a mutation on the interaction
2 | N425A;F427A | disrupting interaction

Variants of: B2
Settings: with ehd1_human EHD1, Q9H4M9
Remark: another data set of the same source

Row | Variant | effect of a mutation on the interaction
3 | N425A;F427A | decreasing interaction
